Target: human erythrocyte adducin (human) (UniProt P35611)
Test: co-sedimentation

Chain of human erythrocyte adducin (human) (P35611 whole entry, chain 1 of 2): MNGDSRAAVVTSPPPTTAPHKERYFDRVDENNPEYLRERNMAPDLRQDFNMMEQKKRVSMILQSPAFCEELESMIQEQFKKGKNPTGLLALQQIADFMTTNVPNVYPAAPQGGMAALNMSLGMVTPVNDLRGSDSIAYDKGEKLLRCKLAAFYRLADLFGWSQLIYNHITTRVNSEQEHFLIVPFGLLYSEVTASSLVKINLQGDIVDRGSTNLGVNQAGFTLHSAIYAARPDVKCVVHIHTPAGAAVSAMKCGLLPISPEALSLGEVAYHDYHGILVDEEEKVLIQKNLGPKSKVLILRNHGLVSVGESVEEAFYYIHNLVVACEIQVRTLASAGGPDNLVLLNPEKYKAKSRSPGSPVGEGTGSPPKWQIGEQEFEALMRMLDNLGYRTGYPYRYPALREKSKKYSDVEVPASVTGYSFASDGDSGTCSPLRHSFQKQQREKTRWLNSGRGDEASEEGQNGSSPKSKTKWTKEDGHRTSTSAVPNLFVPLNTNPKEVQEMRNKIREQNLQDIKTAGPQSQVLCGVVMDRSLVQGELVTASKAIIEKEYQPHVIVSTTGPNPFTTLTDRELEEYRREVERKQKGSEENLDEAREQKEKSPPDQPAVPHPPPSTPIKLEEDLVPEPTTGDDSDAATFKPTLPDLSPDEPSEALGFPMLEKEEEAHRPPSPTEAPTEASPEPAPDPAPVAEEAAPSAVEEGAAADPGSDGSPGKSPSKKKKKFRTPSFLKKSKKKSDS
Chain of human erythrocyte adducin (human) (P35612 whole entry, chain 2 of 2, further chain): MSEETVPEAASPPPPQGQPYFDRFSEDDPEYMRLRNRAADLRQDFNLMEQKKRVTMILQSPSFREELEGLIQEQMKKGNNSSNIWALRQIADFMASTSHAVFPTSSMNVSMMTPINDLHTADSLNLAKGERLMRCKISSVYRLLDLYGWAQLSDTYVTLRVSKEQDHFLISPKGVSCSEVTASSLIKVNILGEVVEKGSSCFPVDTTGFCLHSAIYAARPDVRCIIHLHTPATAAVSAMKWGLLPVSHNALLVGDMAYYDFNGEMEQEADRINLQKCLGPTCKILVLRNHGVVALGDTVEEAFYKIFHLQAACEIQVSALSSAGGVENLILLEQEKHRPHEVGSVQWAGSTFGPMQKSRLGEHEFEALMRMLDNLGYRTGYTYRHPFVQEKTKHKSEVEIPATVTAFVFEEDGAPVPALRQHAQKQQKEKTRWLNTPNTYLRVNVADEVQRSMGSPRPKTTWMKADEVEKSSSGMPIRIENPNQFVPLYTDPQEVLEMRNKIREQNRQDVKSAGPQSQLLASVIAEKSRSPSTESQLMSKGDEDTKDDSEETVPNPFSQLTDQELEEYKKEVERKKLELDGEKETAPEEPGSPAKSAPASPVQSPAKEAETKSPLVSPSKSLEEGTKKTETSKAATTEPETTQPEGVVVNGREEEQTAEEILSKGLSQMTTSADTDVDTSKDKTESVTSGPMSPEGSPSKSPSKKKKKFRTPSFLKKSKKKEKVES

IC50: 4 µM
Substance: bovine brain calmodulin (from UniProt P62157 1-149) (natural protein)

Source: publication PMC2114693
